Measured values: patent US20050282743A1, “Molecular interactions in cells” (Arbor Vita Corporation, priority 2001, published 2005)
Ends that are not written are not given here. Peptide text beside a SMILES is read from it. * marks the point of attachment. Biotin = O=C1N[C@H]2[C@H](CS[C@H]2CCCCC(=O)*)N1

Columns and labels:
Test in all cases: G' assay (10 uM PL peptide), results of TABLE 7 and TABLE 12
Format in all cases: binding
[1] = biological target: T1, PDZ protein (GST-PDZ fusion) (Homo sapiens, UniProt Q12923)
T1 construct: made in house; host or cells: E. coli (DH5alpha, BL21 or JM109)
Outline: (§1)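 Same steps as the G-zero format, apart from a peptide concentration of 10 uM in place of 20 uM in step 2. Amino-terminally biotinylated PL peptides bind GST-PDZ fusions, and retained peptide is quantified by 450 nm absorbance.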

[2] = biological target: T2, PDZ protein (GST-PDZ fusion) (Homo sapiens, UniProt O75970)
T2 construct: made in house; host or cells: E. coli (DH5alpha, BL21 or JM109)
Outline: as §1

[3] = biological target: T3, PDZ protein (GST-PDZ fusion) (Homo sapiens, UniProt Q86UL8)
T3 construct: made in house; host or cells: E. coli (DH5alpha, BL21 or JM109)
Outline: as §1

[4] = PDZ Atrophin-1 Inter. Prot., PDZ Domain 5

T3 sequence (Q86UL8 whole entry, the tested form may be a part): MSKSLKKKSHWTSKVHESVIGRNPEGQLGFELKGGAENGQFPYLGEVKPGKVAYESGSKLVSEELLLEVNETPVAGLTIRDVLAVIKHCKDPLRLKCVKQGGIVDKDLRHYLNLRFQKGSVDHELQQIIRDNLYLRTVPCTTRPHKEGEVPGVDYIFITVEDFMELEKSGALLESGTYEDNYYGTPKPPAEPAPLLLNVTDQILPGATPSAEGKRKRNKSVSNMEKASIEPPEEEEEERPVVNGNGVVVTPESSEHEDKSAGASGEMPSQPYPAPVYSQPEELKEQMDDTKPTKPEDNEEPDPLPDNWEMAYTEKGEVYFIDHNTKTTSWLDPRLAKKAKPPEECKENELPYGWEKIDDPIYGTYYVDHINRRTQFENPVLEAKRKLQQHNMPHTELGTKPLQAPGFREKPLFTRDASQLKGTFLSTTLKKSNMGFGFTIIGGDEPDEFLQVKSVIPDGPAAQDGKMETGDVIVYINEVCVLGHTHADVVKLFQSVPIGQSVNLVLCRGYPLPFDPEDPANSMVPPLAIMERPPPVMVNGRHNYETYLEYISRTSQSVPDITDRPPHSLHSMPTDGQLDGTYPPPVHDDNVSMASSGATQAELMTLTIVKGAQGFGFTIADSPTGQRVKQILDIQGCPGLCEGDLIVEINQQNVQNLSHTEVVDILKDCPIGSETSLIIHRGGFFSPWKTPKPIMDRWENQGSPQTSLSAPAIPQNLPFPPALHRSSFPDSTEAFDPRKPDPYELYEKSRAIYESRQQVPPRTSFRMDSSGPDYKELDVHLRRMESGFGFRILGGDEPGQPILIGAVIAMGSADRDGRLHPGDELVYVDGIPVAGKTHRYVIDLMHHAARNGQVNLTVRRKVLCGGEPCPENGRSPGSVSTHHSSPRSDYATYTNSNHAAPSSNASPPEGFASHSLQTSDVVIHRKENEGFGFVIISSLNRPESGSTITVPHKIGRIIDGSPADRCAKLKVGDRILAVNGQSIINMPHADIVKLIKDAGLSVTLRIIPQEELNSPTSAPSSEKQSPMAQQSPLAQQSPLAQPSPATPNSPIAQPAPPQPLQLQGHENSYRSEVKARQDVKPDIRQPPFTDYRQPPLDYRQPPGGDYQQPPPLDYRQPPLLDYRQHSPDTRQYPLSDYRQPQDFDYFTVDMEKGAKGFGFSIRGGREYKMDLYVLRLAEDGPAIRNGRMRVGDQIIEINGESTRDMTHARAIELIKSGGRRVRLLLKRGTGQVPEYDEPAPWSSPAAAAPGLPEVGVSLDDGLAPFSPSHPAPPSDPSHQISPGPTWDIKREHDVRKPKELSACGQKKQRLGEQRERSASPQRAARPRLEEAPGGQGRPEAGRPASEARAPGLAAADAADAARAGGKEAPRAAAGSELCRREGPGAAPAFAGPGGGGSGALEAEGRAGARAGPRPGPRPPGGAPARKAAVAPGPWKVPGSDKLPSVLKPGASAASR
T2 sequence (O75970 whole entry, the tested form may be a part): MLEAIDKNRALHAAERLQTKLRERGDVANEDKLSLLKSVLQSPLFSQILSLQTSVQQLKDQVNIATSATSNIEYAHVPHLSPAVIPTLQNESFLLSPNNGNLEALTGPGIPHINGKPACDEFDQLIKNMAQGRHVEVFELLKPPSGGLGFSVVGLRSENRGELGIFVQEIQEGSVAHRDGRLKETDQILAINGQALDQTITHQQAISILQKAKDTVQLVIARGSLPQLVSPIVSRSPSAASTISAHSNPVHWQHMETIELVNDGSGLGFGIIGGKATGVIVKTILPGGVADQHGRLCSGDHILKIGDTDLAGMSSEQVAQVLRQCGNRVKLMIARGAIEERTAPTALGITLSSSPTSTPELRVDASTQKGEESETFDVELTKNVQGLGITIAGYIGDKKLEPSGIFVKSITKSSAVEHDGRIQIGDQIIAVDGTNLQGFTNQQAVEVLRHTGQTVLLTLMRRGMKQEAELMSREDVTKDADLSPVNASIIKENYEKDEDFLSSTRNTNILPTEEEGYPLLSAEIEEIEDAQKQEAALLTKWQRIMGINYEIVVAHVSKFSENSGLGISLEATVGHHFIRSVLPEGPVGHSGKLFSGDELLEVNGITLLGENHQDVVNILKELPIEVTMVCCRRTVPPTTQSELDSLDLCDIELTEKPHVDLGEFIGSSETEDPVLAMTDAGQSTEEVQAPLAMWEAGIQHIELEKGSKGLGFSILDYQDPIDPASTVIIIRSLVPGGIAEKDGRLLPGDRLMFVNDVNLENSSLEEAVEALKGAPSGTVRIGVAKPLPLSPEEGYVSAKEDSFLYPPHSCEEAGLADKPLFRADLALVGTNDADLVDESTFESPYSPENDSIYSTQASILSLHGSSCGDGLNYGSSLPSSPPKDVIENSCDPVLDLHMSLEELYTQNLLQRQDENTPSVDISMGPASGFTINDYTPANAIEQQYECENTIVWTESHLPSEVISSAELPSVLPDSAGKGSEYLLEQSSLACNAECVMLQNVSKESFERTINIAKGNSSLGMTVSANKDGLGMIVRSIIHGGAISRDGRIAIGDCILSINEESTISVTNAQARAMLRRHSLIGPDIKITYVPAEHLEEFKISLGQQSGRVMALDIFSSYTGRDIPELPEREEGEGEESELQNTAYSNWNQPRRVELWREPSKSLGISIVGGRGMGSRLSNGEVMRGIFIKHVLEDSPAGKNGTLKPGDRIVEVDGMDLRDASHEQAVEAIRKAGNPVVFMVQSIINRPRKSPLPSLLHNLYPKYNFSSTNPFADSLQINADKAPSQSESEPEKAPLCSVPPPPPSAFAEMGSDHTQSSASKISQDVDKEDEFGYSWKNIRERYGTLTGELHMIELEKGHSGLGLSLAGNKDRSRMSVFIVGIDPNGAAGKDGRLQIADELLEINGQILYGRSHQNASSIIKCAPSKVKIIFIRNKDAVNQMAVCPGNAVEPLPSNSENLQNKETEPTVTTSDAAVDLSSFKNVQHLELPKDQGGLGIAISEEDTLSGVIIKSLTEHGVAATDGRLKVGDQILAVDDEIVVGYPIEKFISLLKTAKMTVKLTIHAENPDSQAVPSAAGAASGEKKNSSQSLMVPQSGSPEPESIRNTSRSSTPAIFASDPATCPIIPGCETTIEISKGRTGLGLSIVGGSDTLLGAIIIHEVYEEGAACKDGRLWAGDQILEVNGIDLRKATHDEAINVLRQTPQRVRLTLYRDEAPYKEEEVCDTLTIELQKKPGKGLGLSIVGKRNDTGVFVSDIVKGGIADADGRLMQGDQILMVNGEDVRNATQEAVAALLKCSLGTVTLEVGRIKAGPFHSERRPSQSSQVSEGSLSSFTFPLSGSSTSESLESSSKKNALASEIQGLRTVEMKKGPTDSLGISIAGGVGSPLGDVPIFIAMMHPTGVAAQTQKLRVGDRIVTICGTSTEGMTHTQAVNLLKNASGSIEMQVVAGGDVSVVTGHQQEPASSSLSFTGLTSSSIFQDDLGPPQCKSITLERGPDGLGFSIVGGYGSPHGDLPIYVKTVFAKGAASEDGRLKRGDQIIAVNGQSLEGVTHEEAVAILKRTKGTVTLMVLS

Compound: KTMPAAMFRLLTGQETPLYI (Biotin-KTMPAAMFRLLTGQETPLYI) [MINT-2]
- Classification ([1]; PDZ PTPL-1, PDZ Domain 4): 4 (A450 nm 3-4)
- Classification ([2]; PDZ MUPP-1, PDZ Domain 2): 1 (A450 nm 0-1)
- Classification ([2]; PDZ MUPP-1, PDZ Domain 3): 1 (A450 nm 0-1)
- Classification ([2]; PDZ MUPP-1, PDZ Domain 7): 1 (A450 nm 0-1)
- Classification ([2]; PDZ MUPP-1, PDZ Domain 9): 1 (A450 nm 0-1)
- Classification ([2]; PDZ MUPP-1, PDZ Domain 11): 5 (A450 nm of 4 more than 2× repeated)

Compound: QATSRNGHSARQHVVADTEL (Biotin-QATSRNGHSARQHVVADTEL) [CD34]
- Classification [3, 4]: 1 (A450 nm 0-1)

Compound: A2AC_HUMAN (Modified) (Biotin-DFRPSFKHILFRRARRGFRQ; not fully specified)
- Classification ([1]; PDZ PTPL-1, PDZ Domain 5): 3 (A450 nm 2-3)
- Classification ([2]; PDZ MUPP-1, PDZ Domain 4): 3 (A450 nm 2-3)

Compound: CC[C@H](C)[C@H](NC(=O)[C@H](CC(=O)O)NC(=O)[C@H](CCC(=O)O)NC(=O)[C@H](CCCNC(=N)N)NC(=O)[C@@H](NC(=O)CCCC[C@@H]1SC[C@@H]2NC(=O)N[C@@H]21)[C@@H](C)O)C(=O)N[C@@H](Cc1ccc(O)cc1)C(=O)N[C@H](C(=O)N[C@@H](CC(N)=O)C(=O)N[C@@H](Cc1ccc(O)cc1)C(=O)N1CCC[C@H]1C(=O)N[C@H](C(=O)N[C@@H](Cc1ccccc1)C(=O)N[C@@H](CO)C(=O)N[C@@H](CCCNC(=N)N)C(=O)N[C@@H](CCCNC(=N)N)C(=O)N1CCC[C@H]1C(=O)N[C@@H](CCCCN)C(=O)N[C@H](C(=O)N[C@@H](CCCNC(=N)N)C(=O)N[C@H](C(=O)O)C(C)C)[C@@H](C)O)[C@@H](C)O)C(C)C [DNAM-1] (Biotin-TREDIYVNYPTFSRRPKTRV-OH; C-terminus assumed)
- Classification ([3]; PDZ atrophin-1 interacting Protein, PDZ Domain 1): 3 (A450 nm 2-3)
- Classification ([2]; PDZ MUPP-1, PDZ Domain 10): 4 (A450 nm 3-4)

Compound: ARHRVTSYTSSSVNVSSNL (Biotin-ARHRVTSYTSSSVNVSSNL) [IL-8RB]
- Classification ([2]; PDZ MUPP-1, PDZ Domain 13): 1 (A450 nm 0-1)

Compound: GPVPGEPAKPKTSAHHATFV (Biotin-GPVPGEPAKPKTSAHHATFV)
- Classification ([1]; PDZ PTPL-1, PDZ Domain 4): 1 (A450 nm 0-1)
- Classification ([2]; PDZ MUPP-1, PDZ Domain 11): 1 (A450 nm 0-1)

Compound: CC(C)C[C@H](NC(=O)[C@H](CC(C)C)NC(=O)[C@@H](NC(=O)[C@H](CC(=O)O)NC(=O)CCCC[C@@H]1SC[C@@H]2NC(=O)N[C@@H]21)[C@@H](C)O)C(=O)N[C@@H](CC(C)C)C(=O)N[C@H](C(=O)N[C@@H](CCC(=O)O)C(=O)N[C@@H](CC(N)=O)C(=O)N[C@@H](CCC(=O)O)C(=O)NCC(=O)N[C@@H](CC(=O)O)C(=O)N[C@@H](CCCCN)C(=O)N[C@H](C(=O)N[C@@H](CCC(=O)O)C(=O)N[C@@H](CCC(=O)O)C(=O)N[C@@H](CCC(N)=O)C(=O)N[C@H](C(=O)N[C@@H](CO)C(=O)N[C@@H](Cc1ccc(O)cc1)C(=O)N[C@H](C(=O)O)C(C)C)C(C)C)[C@@H](C)O)[C@@H](C)O [5H2B_HUMAN] (Biotin-DTLLLTENEGDKTEEQVSYV-OH; C-terminus assumed)
- Classification ([1]; PDZ PTPL-1, PDZ Domain 2): 5 (A450 nm of 4 more than 2× repeated)
- Classification ([1]; PDZ PTPL-1, PDZ Domain 4): 2 (A450 nm 1-2)

Compound: LASKSAEEGKQIPDSLSTDL (Biotin-LASKSAEEGKQIPDSLSTDL) [Dock2]
- Classification [3, 4]: 1 (A450 nm 0-1)
